Usually Kd stands for the constant that tells how readily two partners part at equilibrium. Low values mean higher affinity, high ones lower affinity. In general, Km refers to the concentration of substrate that gives half-maximal velocity. What is called kcat is the number of substrate molecules converted per active site and unit of time at saturation. Usually kcat/Km stands for the second-order rate constant that governs catalysis at low substrate concentration.

The target in data set [1] is actKR (actinorhodin type II polyketide ketoreductase) (Streptomyces coelicolor, UniProt P16544, R65A). Description: NADPH fluorescence titration. Format: binding.
Data set [2] concerns the target actKR (actinorhodin type II polyketide ketoreductase) (Streptomyces coelicolor, UniProt P16544, R93A). Description: NADPH fluorescence titration. It counts as binding.
The target in data set [3] is actKR (actinorhodin type II polyketide ketoreductase) (Streptomyces coelicolor, UniProt P16544). Nature of the data set: NADPH fluorescence titration. Format: binding.
The target in data set [4] is actKR (actinorhodin type II polyketide ketoreductase) (Streptomyces coelicolor, UniProt P16544, R38A). Nature of the data set: NADPH fluorescence titration. It counts as binding.
The target of data set [5] is actKR (actinorhodin type II polyketide ketoreductase) (Streptomyces coelicolor, UniProt P16544, R177A). Nature of the data set: NADPH fluorescence titration. It counts as binding.
The target of data set [6] is actKR (actinorhodin type II polyketide ketoreductase) (Streptomyces coelicolor, UniProt P16544, R220A). Nature of the data set: NADPH fluorescence titration. Format: binding.
Substrate in the data set “purified protein”: O=C1CCC[C@H]2CCCC[C@H]12
Description: purified protein. Format: biochemical, Streptomyces coelicolor. To be noted: co-substrate NADPH.

Substitutions are numbered along the chain they refer to. Numbers in names are those of the source.

Chain of actKR (actinorhodin type II polyketide ketoreductase) (Streptomyces coelicolor, UniProt P16544, R220A) (P16544 whole entry R220A): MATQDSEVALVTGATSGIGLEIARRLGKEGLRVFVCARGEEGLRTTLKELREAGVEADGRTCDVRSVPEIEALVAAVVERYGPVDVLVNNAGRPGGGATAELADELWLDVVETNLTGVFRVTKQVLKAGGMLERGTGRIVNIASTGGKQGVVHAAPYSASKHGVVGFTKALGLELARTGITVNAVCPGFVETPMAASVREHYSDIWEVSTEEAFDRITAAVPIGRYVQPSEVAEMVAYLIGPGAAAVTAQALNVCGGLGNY
Chain of actKR (actinorhodin type II polyketide ketoreductase) (Streptomyces coelicolor, UniProt P16544, R177A) (P16544 whole entry R177A): as the sequence (P16544 whole entry R220A) above, with R177A, A220R counted along it
Chain of actKR (actinorhodin type II polyketide ketoreductase) (Streptomyces coelicolor, UniProt P16544, R38A) (P16544 whole entry R38A): as the sequence (P16544 whole entry R220A) above, with R38A, A220R counted along it
Chain of actKR (actinorhodin type II polyketide ketoreductase) (Streptomyces coelicolor, UniProt P16544) (P16544 whole entry): as the sequence (P16544 whole entry R220A) above, with A220R counted along it
Chain of actKR (actinorhodin type II polyketide ketoreductase) (Streptomyces coelicolor, UniProt P16544, R93A) (P16544 whole entry R93A): as the sequence (P16544 whole entry R220A) above, with R93A, A220R counted along it
Chain of actKR (actinorhodin type II polyketide ketoreductase) (Streptomyces coelicolor, UniProt P16544, R65A) (P16544 whole entry R65A): as the sequence (P16544 whole entry R220A) above, with R65A, A220R counted along it

In the case of `NC(=O)C1=CN([C@@H]2O[C@H](COP(=O)(O)OP(=O)(O)OC[C@H]3O[C@@H](n4cnc5c(N)ncnc54)[C@H](OP(=O)(O)O)[C@@H]3O)[C@@H](O)[C@H]2O)C=CC1` [NADPH], the Kd stood at 1.83 ± 0.21 µM in data set [1]; 6.43 ± 0.68 µM in data set [2]; 1.52 ± 0.09 µM in data set [3]; 4.3 ± 0.4 µM in data set [4]; 1.17 ± 0.1 µM in data set [5]; 1.99 ± 0.16 µM in data set [6].

B1: actKR (actinorhodin type II polyketide ketoreductase) (Streptomyces coelicolor A3(2); F189A) (protein)
chain: MATQDSEVALVTGATSGIGLEIARRLGKEGLRVFVCARGEEGLRTTLKELREAGVEADGRTCDVRSVPEIEALVAAVVERYGPVDVLVNNAGRPGGGATAELADELWLDVVETNLTGVFRVTKQVLKAGGMLERGTGRIVNIASTGGKQGVVHAAPYSASKHGVVGFTKALGLELARTGITVNAVCPGAVETPMAASVREHYSDIWEVSTEEAFDRITARVPIGRYVQPSEVAEMVAYLIGPGAAAVTAQALNVCGGLGNY
Regarding B1, in the data set “purified protein”, the Km was 8630 ± 2010 µM, the kcat came to 0.049 ± 0.005 s⁻¹ and the kcat/Km is 5.7 ± 1.5 M⁻¹ s⁻¹.

B2: actKR (actinorhodin type II polyketide ketoreductase) (Streptomyces coelicolor A3(2); D109R) (protein)
chain: B1 chain with D109R, A189F
Turning to B2, in the data set “purified protein”, the Km is 1250 ± 400 µM, the kcat amounted to 0.078 ± 0.01 s⁻¹ and the kcat/Km was 62 ± 21 M⁻¹ s⁻¹.

B3: actKR (actinorhodin type II polyketide ketoreductase) (Streptomyces coelicolor A3(2); V198A) (protein)
chain: B1 chain with A189F, V198A
For B3, in “purified protein”, the Km is 15500 ± 1490 µM, the kcat stood at 0.24 ± 0.01 s⁻¹ and the kcat/Km stood at 16 ± 2 M⁻¹ s⁻¹.

B4: actKR (actinorhodin type II polyketide ketoreductase) (Streptomyces coelicolor A3(2); T145A) (protein)
chain: B1 chain with T145A, A189F
In the case of B4, in the data set “purified protein”, the Km is 420 ± 60 µM, the kcat is 0.18 ± 0.008 s⁻¹ and the kcat/Km was 420 ± 60 M⁻¹ s⁻¹.

B5: actKR (actinorhodin type II polyketide ketoreductase) (Streptomyces coelicolor A3(2)) (protein)
chain: B1 chain with A189F
As for B5, in the data set “purified protein”, the Km worked out at 760 ± 90 µM, the kcat is 2.55 ± 0.12 s⁻¹ and the kcat/Km is 3230 ± 320 M⁻¹ s⁻¹.

B6: actKR (actinorhodin type II polyketide ketoreductase) (Streptomyces coelicolor A3(2); M194W) (protein)
chain: B1 chain with A189F, M194W
As for B6, in “purified protein”, the Km came out at 3220 ± 650 µM, the kcat worked out at 0.43 ± 0.06 s⁻¹ and the kcat/Km worked out at 130 ± 30 M⁻¹ s⁻¹.

The record behind these values is PMC3855848 (Chemistry & biology, 2013).
